One assay deals with T1, GST alone (UniProt P08515 1-218 = GST).
T1 construct: Control protein
Kind of assay: GST pulldown from lysates of myc-haspin-transfected cells. The procedure: (§1) For immunoprecipitation, cells are suspended in 50 mM Tris/0.5 M NaCl/1% Triton X-100/1% DOC/0.1% SDS/2 mM EDTA, pH 7.4 (buffer L) with 1 μg/ml pepstatin/1 μg/ml leupeptin/1 μg/ml antipain/1 μg/ml chymostatin/1 mM phenylmethylsulphyl fluoride/1 mM NaF/0.1 μM okadaic acid and lysed by shearing 15 times through a 21 gauge needle. Insoluble material is removed by centrifugation for 15 min at 13,000 rpm and the lysates precleared with protein G-Sepharose and concentrations equalized based on Bradford assay (Bio-Rad). Lysates are incubated with antibodies for 1.5 h at 4° C. before addition of protein G-Sepharose for a further 1.5 h. Beads are washed 4 times with buffer L and thrice with Hepes-buffered saline, pH 7.4 (HBS). For GST pulldown assays, cells are lysed in 20 mM Tris/1% Triton X-100/1 mM EDTA/1 mM DTT, pH 7.4 (buffer T) containing 0.3 M NaCl and protease and phosphatase inhibitors as above, clarified, and precleared with glutathione-Sepharose. […]
(§2) To examine the interaction of haspin with H3, we utilized the H3-GST fusion proteins in “pulldown” assays from lysates of myc-haspin-transfected cells. In the conditions of the assay, myc-haspin bound to H3-GST, whereas the binding of myc-haspin to GST alone, H2B-GST and H4-GST was not detected.

The target in assay [1] is T2, H2B-GST (residues 1-35 of human H2B fused to GST) (human, UniProt P62807 2-36).
T2 construct: range 1-35; not shown: glutathione S-transferase (GST) encoded by vector pETGEX-CT
The assay is described as above. The procedure:
as §1, §2

T2 sequence (P62807 2-36): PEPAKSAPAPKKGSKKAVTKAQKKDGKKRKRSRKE
T1 sequence (P08515 whole entry): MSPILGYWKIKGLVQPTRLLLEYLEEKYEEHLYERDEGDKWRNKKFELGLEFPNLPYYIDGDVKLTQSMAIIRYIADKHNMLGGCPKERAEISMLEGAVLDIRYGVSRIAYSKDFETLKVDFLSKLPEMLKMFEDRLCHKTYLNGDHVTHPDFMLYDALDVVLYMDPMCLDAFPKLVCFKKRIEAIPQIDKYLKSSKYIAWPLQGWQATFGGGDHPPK

B1: myc-tagged human haspin (enzyme)
chain: AASLPGPGSRLFRTYGAADGRRQRRPGREAAQWFPPQDRRRFFNSSGSSDASIGDPSQSDDPDDPDDPDFPGSPVRRRRRCPGGRVPKDRPSLTVTPKRWKLRARPSLTVTPRRLGLRARPPQKCSTPCGPLRLPPFPSRDSGRLSPDLSVCGQPRDGDELGISASLFSSLASPCPGSPTPRDSVISIGTSACLVAASAVPSDLHLPEVSLDRASLPCSQEEATGGAKDTRMVHQTRASLRSVLFGLMNSGTPEDSEFRADGKNMRESCCKRKLVVGNGPEGPGLSSTGKRRATGQDSCQERGLQEAVRREHQEASVPKGRIVPRGTDRLERTRSSRKSKHQEATETSLLHSHRFKKGQKLGKDSFPTQDLTPLQNACFWTKTRASFSFHKKKIVTDVSEVCSIYTTATSLSGSLLSECSNRPVMNRTSGAPSSWHSSSMYLLSPLNTLSISNKKASDAEKVYGECSQKGPVPFSHCLPTEKLQRCEKIGEGVFGEVFQTIADHTPVAIKIIAIEGPDLVNGSHQKTFEEILPEIIISKELSLLSGEVCNRTEGFIGLNSVHCVQGSYPPLLLKAWDHYNSTKGSANDRPDFFKDDQLFIVLEFEFGGIDLEQMRTKLSSLATAKSILHQLTASLAVAEASLRFEHRDLHWGNVLLKKTSLKKLHYTLNGKSSTIPSCGLQVSIIDYTLSRLERDGIVVFCDVSMDEDLFTGDGDYQFDIYRLMKKENNNRWGEYHPYSNVLWLHYLTDKMLKQMTFKTKCNTPAMKQIKRKIQEFHRTMLNFSSATDLLCQHSLFK
notes: Expressed in transfected HEK293 or HeLa cells and used from cell lysates; also called myc-haspin; full-length haspin; not shown: myc tag encoded by the pcDNA3-derived plasmid pCANmyc1
Consider B1, for which the binding result (in the assay with GST alone; in assay [1]) was “no binding” in each case.

The record behind these values is patent US20080096222A1 (BRIGHAM AND WOMEN S HOSPITAL, published 2008).
